Experimental data from patent KR20220167207A.
Changes are numbered by the printed parent chain.

T1: CADM1 peptide structure expressed on cells (CADM1 peptide, Myc tag, hinge, transmembrane domain, GFP) (human)
T1 sequence: DSRAGEEGSIRAVDH

B1: 4A2 (scFv, V domains shown)
VH: AVTLDESGGGLQTPGRALSLACKGSGFTFSSYAMNWVRQAPGKGLEFVAQITSSGRYTYYGTAVKGRATISRDNGQSTVRLQLNNLRAEDSGTYYCAKDAAAGYYDGATAGDIDAWGHGTEVIVSS
VL: LTQPSSVSANPGETVKITCSGGYNRYGWYQQKSPGSAPVTVIYSNNQRPSNIPSRFSGSKSGSTATLTITGVQAEDEAVYYCGSYDSSDGYAGIFGAGTTLTVL
B2: 4A8 (scFv, V domains shown)
VH: B1 VH with R16G, A17G, A21V, G24A
VL: LTQPSSVSANLGGTVKITCSGGSGSNHYGWYQQKSPGSAPVTVIYSNNKRPSNIPSRFSGSKFGSTATLTITGVQADDEAVYYCGGYDSSAGYIGPFGAGTTLTVL
B3: RB11 (scFv, V domains shown)
VH: B1 VH with R16G, A17G, A21V
VL: LTQPSSVSANPGGTVKITCSGGSGSYGWFQQKAPGSAPVTLIYANTNRPSDIPSRFSGSKSGSTATLTITGVQVEDEAVYYCGSTDSSYVSIFGAGTTLTVL
B4: RH6 (scFv, V domains shown)
VH: B1 VH with R16G, A17G, A21V
VL: VTQPSSVSANPGESVKITCSGGSYSYGWYQQKSPGSAPVTVIYSNNQRPSNIPSRFSGSTSGSTSTLTITGVQADDEAVYFCGTFDSSTNAAFGAGTTLTVL

Tests used:
[1] = molecular target: T1, CADM1 peptide structure expressed on cells (CADM1 peptide, Myc tag, hinge, transmembrane domain, GFP) (human); experiment: flow cytometry, 1 ug scFv on 5x10^5 cells with the CADM1 peptide structure, PE anti-HA
[2] = molecular target: CADM1 on small cell lung cancer cell lines H146 and H69 (human) (UniProt Q9BY67); experiment: flow cytometry, 1 ug scFv on 5x10^5 H69 cells, PE anti-HA
[3] = molecular target: CADM1 on small cell lung cancer cell lines H146 and H69 (human) (UniProt Q9BY67); experiment: flow cytometry, 1 ug scFv on 5x10^5 H146 cells, PE anti-HA

Row | Binder | 결합력 % [1] | 결합력 % [2] | 결합력 % [3]
1 | B1 | 16.3% | 29.1% | 10.2%
2 | B2 | 14.7% | 61.1% | 9.7%
3 | B3 | 16% | 61.8% | 33.6%
4 | B4 | 15.3% | 12% | 4.5%
